Like-named read-outs stand apart in the source and are kept apart here.
B1: E. coli glutamine synthetase fused to mEGFP (GlnA-mEGFP) (enzyme)
chain: MSAEHVLTMLNEHEVKFVDLRFTDTKGKEQHVTIPAHQVNAEFFEEGKMFDGSSIGGWKGINESDMVLMPDASTAVIDPFFADSTLIIRCDILEPGTLQGYDRDPRSIAKRAEDYLRSTGIADTVLFGPEPEFFLFDDIRFGSSISGSHVAIDDIEGAWNSSTQYEGGNKGHRPAVKGGYFPVPPVDSAQDIRSEMCLVMEQMGLVVEAHHHEVATAGQNEVATRFNTMTKKADEIQIYKYVVHNVAHRFGKTATFMPKPMFGDNGSGMHCHMSLSKNGVNLFAGDKYAGLSEQALYYIGGVIKHAKAINALANPTTNSYKRLVPGYEAPVMLAYSARNRSASIRIPVVSSPKARRIEVRFPDPAANPYLCFAALLMAGLDGIKNKIHPGEAMDKNLYDLPPEEAKEIPQVAGSLEEALNELDLDREFLKAGGVFTDEAIDAYIALRREEDDRVRMTPHPVEFELYYSV
B2: Influenza A virus hemagglutinin fused to mEGFP (HA-wt-mEGFP) (natural protein)
chain: not shown

How the values were obtained:
[1] = molecular target: the molecule itself; experiment: Number&Brightness
[2] = molecular target: the molecule itself

Protein | stoichiometry N [1] | stoichiometry N [2]
B1 | 11.9 | 
B2 |  | 3.17

— doi:10.1101/311175 (bioRxiv, 2018)
